We go through one molecule from paper PMC8609364, “A Selective Tether Recruits Activated Response Regulator CheB to Its Chemoreceptor Substrate” (mBio, 2021).

The assay addresses Tar4E L378C, E. coli aspartate chemoreceptor Tar, all-glutamyl form with carboxyl-terminal pentapeptide, homodimer in Nanodiscs (E. coli) (UniProt P07017). As to the kind of experiment: BLI; BLItz; biotinylated Tar homodimers in Nanodiscs held on an avidin sensor tip, CheB or CheBC in solution; 50 mM Tris-HCl pH 7.5, 10% glycerol, 5 mM MgCl2, 50 mM KCl, 2% BSA, 2 mM DTT; global fit, apparent rate constants, KD calculated from kon and koff.

B1: methylesterase/deamidase CheB from E. coli, low-activity, unphosphorylated form (enzyme, UniProt P07330 1-349, looked up)
chain: MSKIRVLSVDDSALMRQIMTEIINSHSDMEMVATAPDPLVARDLIKKFNPDVLTLDVEMPRMDGLDFLEKLMRLRPMPVVMVSSLTGKGSEVTLRALELGAIDFVTKPQLGIREGMLAYNEMIAEKVRTAAKASLAAHKPLSAPTTLKAGPLLSSEKLIAIGASTGGTEAIRHVLQPLPLSSPALLITQHMPPGFTRSFADRLNKLCQIGVKEAEDGERVLPGHAYIAPGDRHMELSRSGANYQIKIHDGPAVNRHRPSVDVLFHSVAKQAGRNAVGVILTGMGNDGAAGMLAMRQAGAWTLAQNEASCVVFGMPREAINMGGVCEVVDLSQVSQQMLAKISAGQAIRI
notes: CheB methylesterase/deamidase of E. coli, unphosphorylated, from plasmid pCW/cheB; measured with 2 mM DTT in the buffer; also called low-activity CheB; unmodified CheB; source: E. coli K-12 RP3098 with pCW/cheB, purified
As to B1, the Kd was 230 µM.
